In PMC9313797:

Key:
Assay in all cases: ELISA
FV712‐1478 = biological target: FV712‐1478
FV712‐1481 = biological target: FV712‐1481
FV712‐1484 = biological target: FV712‐1484
FV712‐1487 = biological target: FV712‐1487
FV712‐1490 = biological target: FV712‐1490

- Kd (FV712‐1478): 200 pM
- Kd (FV712‐1481): 200 pM
- Kd (FV712‐1484): 600 pM
- Kd (FV712‐1487): 600 pM
- Kd (FV712‐1490): 1000 pM
Substance: Recombinant tissue factor pathway inhibitor alpha (TFPIα) (from UniProt P10646-1 29-304) (natural protein)
